Here are results for three molecules from KR20220147765A (dated 2022).

To fix the notation:
B1: RB6 (antibody, V domains shown)
VH: EVQLLESGGGLVQPGGSLRLSCAASGFTFSSYDMSWVRQAPGKGLEWVSGISYSGGSTYYADSVKGRFTISRDNSKNTLYLQMNSLRAEDTAVYYCARDVNFVPLVTFDYWGQGTLVTVSS
VL: QSVLTQPPSASGTPGQRVTLSCTGSSSNIGSNSVTWYQQLPGTAPKLLIYDDNQRPSGVPDRFSGSKSGTSASLAISGLRSEDEADYYCGTWDYSLSAYVFGGGTKLTVL
notes: also called SARS-CoV-2 RBD 특이적 IgG 선별항체 RB6; clone RB6
B2: RD10 (antibody, V domains shown)
VH: EVQLLESGGGLVQPGGSLRLSCAASGFTFSDYAMSWVRQAPGKGLEWVSAIYPGGGSTYYADSVKGRFTISRDNSKNTLYLQMNSLRAEDTAVYYCARNLFGFDYWGQGTLVTVSS
VL: QSVLTQPPSASGTPGQRVTISCTGSSSNIGSNAVYWYQQLPGTAPKLLIYDDSNRPSGVPDRFSGSKSGTSASLAISGLRSEDEADYYCGSWDDSLSAYVFGGGTKLTVL
notes: also called SARS-CoV-2 RBD 특이적 IgG 선별항체 RD10; clone RD10
B3: RD3 (antibody, V domains shown)
VH: EVQLLESGGGLVQPGGSLRLSCAASGFTFSDYAMSWVRQAPGKGLEWVSWIYSGSGNKYYADSVKGRFTISRDNSKNTLYLQMNSLRAEDTAVYYCARFPIARTSNSQSSYDGMDVWGQGTLVTVSS
VL: QSVLTQPPSASGTPGQRVTISCSGSSSNIGSNAVSWYQQLPGTAPKLLIYADNKRPSGVPDRFSGSKSGTSASLAISGLRSEDEADYYCGAWDSSLNAYVFGGGTKLTVL
notes: also called SARS-CoV-2 RBD 특이적 IgG 선별항체 RD3; clone RD3

For the experiment, the target named is T1, SARS-CoV S 단백질의 RBD 항원 (SARS-CoV, UniProt P59594 306-527).
T1 construct: also called SARS-CoV RBD
As to the kind of experiment: ELISA, 0.1 μg antigen coated, IgG4. For orientation: In an ELISA, binding on a coated surface is turned into a signal by an enzyme label.
In the case of B1, the binding result is given as “binds”. As for B2, the entry is “binds”; as for B3, “binds”.
